Measurements as given in patent US20250262210A1 (TRUSTEES OF COLUMBIA UNIVERSITY IN THE CITY OF NEW YORK, published 2025).

Assays:
Test in all cases: IP/MS, LZTR1 R810W-FLAG, U87
[1] = target: BRCA2 (human, UniProt P51587 1-3418)
Method in brief: (§1)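 Read-out: spectral counts from LC-MS/MS (Orbitrap Fusion) after MaxQuant identification. Variable modifications were Met oxidation, protein N-terminal acetylation and N/Q deamidation.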

[2] = target: PEAK1 (human, UniProt Q9H792 1-1746)
Method in brief: as §1

[3] = target: T1, GTF3C2 (human, UniProt Q8WUA4 1-911, limits assumed)
T1 sequence (looked up): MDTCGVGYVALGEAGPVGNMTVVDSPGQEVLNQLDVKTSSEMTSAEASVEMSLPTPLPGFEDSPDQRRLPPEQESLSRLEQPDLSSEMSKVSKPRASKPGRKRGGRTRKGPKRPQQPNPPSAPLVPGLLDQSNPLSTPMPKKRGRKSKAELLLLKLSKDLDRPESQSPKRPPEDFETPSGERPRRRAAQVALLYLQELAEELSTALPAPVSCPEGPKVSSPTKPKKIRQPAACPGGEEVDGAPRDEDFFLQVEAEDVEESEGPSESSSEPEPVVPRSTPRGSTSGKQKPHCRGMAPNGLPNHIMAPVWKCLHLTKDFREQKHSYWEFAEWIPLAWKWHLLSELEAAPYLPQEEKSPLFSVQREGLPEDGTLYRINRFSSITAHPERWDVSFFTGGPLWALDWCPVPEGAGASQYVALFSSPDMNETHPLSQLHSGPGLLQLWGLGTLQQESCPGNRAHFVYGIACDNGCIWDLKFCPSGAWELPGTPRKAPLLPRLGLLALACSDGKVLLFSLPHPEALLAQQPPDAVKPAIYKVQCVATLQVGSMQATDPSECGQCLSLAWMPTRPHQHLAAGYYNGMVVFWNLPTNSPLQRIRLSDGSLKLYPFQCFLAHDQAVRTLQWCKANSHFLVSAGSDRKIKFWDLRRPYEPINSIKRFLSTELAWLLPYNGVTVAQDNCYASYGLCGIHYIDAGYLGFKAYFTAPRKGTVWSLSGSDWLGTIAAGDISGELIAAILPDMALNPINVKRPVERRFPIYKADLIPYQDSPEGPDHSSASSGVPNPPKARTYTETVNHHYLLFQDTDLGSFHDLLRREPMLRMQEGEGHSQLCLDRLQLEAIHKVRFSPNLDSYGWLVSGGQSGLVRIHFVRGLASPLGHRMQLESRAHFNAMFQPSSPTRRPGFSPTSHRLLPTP
Method in brief: as §1

[4] = target: DIP2B (human, UniProt Q9P265 1-1576)
Method in brief: as §1

Measured: binding result

PEAK1, sequence (Q9H792 whole entry): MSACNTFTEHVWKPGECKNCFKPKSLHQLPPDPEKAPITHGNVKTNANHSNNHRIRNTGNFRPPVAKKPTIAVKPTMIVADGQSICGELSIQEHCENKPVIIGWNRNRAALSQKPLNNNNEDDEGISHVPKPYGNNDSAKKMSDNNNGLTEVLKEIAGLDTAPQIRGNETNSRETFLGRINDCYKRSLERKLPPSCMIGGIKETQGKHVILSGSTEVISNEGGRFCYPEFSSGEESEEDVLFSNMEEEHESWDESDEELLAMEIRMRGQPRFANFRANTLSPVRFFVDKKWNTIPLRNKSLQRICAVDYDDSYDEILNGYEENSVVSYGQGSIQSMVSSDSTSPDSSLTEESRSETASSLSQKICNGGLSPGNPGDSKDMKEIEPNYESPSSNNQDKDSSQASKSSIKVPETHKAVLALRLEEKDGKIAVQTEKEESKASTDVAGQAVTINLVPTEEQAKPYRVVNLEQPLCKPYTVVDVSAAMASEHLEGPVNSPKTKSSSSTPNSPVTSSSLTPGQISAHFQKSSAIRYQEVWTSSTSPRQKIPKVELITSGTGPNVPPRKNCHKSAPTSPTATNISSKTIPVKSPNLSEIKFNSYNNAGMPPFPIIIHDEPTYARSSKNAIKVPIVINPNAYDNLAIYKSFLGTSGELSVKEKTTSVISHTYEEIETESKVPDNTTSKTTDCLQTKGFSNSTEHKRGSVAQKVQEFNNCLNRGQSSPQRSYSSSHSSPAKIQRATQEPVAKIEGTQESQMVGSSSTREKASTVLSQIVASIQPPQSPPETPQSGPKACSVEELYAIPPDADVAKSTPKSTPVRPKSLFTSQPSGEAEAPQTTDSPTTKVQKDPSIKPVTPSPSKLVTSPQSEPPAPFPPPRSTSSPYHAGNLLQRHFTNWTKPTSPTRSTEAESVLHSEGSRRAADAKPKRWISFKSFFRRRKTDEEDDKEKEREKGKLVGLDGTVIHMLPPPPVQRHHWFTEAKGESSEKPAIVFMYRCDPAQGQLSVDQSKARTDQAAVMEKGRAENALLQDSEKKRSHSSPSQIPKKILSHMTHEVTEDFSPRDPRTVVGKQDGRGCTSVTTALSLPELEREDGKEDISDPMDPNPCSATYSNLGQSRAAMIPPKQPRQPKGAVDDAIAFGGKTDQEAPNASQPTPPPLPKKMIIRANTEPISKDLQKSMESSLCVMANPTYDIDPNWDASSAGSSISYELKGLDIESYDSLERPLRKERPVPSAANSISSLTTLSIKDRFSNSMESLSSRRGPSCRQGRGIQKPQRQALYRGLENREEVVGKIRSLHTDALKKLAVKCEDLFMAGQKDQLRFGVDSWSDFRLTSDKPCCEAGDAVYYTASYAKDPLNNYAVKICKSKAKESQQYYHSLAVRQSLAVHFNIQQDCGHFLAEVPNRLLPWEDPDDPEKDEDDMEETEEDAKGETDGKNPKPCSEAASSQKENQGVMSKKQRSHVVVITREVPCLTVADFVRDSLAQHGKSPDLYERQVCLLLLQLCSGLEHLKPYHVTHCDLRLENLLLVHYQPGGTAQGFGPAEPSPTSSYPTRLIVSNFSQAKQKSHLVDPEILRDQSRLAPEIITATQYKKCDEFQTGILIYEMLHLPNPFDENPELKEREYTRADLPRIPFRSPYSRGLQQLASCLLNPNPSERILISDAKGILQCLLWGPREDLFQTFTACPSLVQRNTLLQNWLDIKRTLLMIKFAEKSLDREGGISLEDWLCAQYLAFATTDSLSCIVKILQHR
BRCA2, sequence (P51587 whole entry, the tested form may be a part): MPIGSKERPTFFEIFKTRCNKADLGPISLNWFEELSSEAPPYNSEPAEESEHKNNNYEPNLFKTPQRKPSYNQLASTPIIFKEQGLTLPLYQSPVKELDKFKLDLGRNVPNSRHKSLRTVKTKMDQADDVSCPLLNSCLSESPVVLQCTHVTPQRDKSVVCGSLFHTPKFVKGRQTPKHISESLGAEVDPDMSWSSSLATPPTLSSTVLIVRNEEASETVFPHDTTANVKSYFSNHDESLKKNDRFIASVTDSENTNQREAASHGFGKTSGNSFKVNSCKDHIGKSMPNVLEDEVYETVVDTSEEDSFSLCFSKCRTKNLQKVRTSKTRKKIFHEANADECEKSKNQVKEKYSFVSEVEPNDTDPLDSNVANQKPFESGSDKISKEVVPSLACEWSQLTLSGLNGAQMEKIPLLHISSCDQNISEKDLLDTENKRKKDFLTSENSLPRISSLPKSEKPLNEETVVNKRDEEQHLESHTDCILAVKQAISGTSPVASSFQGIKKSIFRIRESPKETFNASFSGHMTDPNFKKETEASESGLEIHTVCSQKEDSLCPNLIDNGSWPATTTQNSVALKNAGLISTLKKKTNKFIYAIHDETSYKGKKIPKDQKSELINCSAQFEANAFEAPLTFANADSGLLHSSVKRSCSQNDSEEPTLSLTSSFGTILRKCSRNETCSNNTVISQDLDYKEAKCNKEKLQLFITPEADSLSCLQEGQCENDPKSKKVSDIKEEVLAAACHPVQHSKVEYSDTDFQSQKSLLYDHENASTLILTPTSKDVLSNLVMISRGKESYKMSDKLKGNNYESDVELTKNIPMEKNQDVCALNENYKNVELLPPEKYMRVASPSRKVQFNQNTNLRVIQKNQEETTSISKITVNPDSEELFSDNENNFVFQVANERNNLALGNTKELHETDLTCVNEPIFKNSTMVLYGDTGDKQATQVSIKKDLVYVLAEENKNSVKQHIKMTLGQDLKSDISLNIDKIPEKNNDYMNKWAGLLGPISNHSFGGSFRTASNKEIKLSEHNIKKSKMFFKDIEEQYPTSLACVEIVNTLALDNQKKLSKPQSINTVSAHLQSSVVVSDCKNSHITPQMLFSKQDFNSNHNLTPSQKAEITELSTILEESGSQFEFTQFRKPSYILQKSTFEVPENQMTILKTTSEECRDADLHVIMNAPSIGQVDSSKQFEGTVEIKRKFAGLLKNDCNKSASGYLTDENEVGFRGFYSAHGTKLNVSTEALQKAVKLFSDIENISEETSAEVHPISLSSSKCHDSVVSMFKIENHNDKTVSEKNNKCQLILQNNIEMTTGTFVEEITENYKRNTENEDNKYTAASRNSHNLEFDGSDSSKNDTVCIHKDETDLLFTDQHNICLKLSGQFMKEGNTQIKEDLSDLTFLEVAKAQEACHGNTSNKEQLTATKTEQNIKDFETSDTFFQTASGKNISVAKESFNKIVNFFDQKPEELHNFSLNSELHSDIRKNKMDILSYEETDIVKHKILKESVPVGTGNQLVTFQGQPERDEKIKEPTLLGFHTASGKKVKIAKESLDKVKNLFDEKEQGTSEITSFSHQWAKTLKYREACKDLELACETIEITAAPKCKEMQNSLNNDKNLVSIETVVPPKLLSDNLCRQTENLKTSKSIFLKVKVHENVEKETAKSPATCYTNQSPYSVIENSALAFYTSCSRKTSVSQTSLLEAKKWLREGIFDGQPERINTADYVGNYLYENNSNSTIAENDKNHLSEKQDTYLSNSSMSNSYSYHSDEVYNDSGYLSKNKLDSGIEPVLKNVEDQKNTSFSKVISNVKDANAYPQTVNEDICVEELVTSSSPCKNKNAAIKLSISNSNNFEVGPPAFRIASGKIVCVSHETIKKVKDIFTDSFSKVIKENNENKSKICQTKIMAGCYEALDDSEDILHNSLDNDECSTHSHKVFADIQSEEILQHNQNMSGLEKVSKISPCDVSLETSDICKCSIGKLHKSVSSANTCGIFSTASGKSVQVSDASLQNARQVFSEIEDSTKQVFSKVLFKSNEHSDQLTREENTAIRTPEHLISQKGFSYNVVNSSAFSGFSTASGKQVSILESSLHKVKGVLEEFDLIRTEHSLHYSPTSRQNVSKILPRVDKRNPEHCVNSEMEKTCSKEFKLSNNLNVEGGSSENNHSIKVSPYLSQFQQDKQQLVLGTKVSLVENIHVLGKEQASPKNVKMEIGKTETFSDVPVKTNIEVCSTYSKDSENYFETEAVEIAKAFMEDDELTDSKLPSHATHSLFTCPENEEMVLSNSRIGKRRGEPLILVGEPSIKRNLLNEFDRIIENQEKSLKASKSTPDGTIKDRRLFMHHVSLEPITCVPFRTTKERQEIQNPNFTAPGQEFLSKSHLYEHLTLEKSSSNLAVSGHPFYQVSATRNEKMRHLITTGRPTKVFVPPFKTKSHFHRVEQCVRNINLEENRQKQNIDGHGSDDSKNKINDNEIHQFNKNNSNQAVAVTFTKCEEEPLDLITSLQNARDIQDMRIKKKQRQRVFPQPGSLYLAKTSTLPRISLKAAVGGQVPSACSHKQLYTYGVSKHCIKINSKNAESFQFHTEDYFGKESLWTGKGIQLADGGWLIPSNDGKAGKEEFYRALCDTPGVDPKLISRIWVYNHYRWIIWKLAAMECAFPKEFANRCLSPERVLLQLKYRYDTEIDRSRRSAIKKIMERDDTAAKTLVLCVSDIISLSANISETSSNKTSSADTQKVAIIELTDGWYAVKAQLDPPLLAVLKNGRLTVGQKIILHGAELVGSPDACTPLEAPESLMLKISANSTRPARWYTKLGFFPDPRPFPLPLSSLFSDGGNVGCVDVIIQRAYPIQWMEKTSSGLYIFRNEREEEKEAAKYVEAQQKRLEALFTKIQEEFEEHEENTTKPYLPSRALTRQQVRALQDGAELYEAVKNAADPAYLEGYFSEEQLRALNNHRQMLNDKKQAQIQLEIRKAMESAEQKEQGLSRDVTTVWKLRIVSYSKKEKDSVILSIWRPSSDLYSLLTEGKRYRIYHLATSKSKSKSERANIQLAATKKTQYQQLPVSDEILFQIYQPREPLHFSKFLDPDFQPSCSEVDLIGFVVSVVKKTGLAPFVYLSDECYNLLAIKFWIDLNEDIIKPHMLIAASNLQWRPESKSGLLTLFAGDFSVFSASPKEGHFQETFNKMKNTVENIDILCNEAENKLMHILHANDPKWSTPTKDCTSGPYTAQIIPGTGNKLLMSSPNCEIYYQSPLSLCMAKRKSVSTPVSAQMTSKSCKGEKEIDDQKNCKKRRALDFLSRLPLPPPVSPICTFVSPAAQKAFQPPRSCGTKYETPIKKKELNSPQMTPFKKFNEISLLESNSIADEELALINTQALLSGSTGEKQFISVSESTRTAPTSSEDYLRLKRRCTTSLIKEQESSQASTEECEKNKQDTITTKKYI

B1: LZTR1 R810W-FLAG (other, human, UniProt Q8N653 1-840, looked up)
chain: MAGPGSTGGQIGAAALAGGARSKVAPSVDFDHSCSDSVEYLTLNFGPFETVHRWRRLPPCDEFVGARRSKHTVVAYKDAIYVFGGDNGKTMLNDLLRFDVKDCSWCRAFTTGTPPAPRYHHSAVVYGSSMFVFGGYTGDIYSNSNLKNKNDLFEYKFATGQWTEWKIEGRLPVARSAHGATVYSDKLWIFAGYDGNARLNDMWTIGLQDRELTCWEEVAQSGEIPPSCCNFPVAVCRDKMFVFSGQSGAKITNNLFQFEFKDKTWTRIPTEHLLRGSPPPPQRRYGHTMVAFDRHLYVFGGAADNTLPNELHCYDVDFQTWEVVQPSSDSEVGGAEVPERACASEEVPTLTYEERVGFKKSRDVFGLDFGTTSAKQPTQPASELPSGRLFHAAAVISDAMYIFGGTVDNNIRSGEMYRFQFSCYPKCTLHEDYGRLWESRQFCDVEFVLGEKEECVQGHVAIVTARSRWLRRKITQARERLAQKLEQEAAPVPREAPGVAAGGARPPLLHVAIREAEARPFEVLMQFLYTDKIKYPRKGHVEDVLLIMDVYKLALSFQLCRLEQLCRQYIEASVDLQNVLVVCESAARLQLSQLKEHCLNFVVKESHFNQVIMMKEFERLSSPLIVEIVRRKQQPPPRTPLDQPVDIGTSLIQDMKAYLEGAGAEFCDITLLLDGHPRPAHKAILAARSSYFEAMFRSFMPEDGQVNISIGEMVPSRQAFESMLRYIYYGEVNMPPEDSLYLFAAPYYYGFYNNRLQAYCKQNLEMNVTVQNVLQILEAADKTQALDMKRHCLHIIVHQFTKVSKLPTLWSLSQQLLLDIIDSLASHISDKQCAELGADI
notes: Stably expressed in U87 cells by lentivirus; also called LZTR1-FLAG-R810W; LZTR1 RW; not shown: FLAG tag
binds: all assays above
